According to patent US20190211057A1 (NATIONAL YANG MING UNIVERSITY, published 2019):
Ends that are not written are not given here.

Columns and labels:
[1] = molecular target: T1, integrin αvβ3 receptor on cells (HUVEC, U87MG, MCF-7, ES-2-luc) (human), P06756; experiment: competitive cell uptake on ES-2-luc cells, cRGDfk at 1000-fold molar excess; labelled competitor ^111In-DTPA-RGD4C-yCD; settings: remark: other sources report otherwise
T1 chain 1: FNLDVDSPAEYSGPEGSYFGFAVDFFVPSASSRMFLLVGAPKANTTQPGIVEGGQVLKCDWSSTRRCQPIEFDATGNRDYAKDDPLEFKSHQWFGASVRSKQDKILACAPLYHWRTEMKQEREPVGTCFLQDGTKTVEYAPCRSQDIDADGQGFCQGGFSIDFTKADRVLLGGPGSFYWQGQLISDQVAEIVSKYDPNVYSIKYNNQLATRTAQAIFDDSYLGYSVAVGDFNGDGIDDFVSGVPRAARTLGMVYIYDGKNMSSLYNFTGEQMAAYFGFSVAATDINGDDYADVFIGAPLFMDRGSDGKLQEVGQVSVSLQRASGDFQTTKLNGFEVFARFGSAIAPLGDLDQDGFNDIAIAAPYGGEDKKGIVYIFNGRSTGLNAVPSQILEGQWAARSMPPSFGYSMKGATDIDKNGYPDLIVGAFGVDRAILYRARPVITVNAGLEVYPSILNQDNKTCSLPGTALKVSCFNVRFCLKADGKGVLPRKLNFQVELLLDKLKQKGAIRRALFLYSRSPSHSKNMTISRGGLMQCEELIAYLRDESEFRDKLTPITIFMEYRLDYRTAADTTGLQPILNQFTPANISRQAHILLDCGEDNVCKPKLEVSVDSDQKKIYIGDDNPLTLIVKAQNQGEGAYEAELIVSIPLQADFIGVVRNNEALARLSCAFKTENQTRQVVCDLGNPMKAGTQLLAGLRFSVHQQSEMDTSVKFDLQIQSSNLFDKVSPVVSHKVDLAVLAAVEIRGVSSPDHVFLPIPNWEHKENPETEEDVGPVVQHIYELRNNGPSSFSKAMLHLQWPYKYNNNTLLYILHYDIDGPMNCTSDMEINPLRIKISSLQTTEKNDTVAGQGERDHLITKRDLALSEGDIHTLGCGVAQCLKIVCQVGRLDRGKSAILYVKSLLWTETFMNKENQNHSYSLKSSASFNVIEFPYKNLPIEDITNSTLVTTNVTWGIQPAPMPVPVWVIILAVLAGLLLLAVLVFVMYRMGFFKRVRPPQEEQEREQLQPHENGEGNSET
T1 chain 2: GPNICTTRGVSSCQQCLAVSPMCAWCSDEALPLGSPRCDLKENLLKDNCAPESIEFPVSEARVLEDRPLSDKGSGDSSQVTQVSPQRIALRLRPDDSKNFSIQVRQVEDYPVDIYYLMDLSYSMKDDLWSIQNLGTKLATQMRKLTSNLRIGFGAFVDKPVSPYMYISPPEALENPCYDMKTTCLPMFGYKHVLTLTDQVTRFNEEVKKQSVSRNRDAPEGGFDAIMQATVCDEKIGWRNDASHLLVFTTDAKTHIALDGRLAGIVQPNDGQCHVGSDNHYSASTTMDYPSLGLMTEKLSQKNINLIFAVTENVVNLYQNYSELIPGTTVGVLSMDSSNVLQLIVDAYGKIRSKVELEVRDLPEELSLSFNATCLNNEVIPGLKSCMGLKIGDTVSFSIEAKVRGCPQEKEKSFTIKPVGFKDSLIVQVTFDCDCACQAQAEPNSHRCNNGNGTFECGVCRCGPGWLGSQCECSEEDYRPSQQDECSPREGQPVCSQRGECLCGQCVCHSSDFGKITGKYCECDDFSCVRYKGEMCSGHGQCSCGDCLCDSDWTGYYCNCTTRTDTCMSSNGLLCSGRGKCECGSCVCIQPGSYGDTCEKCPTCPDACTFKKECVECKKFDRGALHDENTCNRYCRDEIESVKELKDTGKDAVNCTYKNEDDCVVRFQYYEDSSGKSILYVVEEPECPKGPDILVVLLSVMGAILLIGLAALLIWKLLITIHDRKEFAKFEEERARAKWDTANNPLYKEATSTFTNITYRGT

[2] = molecular target: T1, integrin αvβ3 receptor on cells (HUVEC, …); experiment: competitive cell uptake on MCF-7 cells (low αvβ3), cRGDfk at 1000-fold molar excess; labelled ^111In-DTPA-RGD4C-yCD; settings: remark: other sources report otherwise
[3] = molecular target: T1, integrin αvβ3 receptor on cells (HUVEC, …); experiment: competitive cell uptake on HUVEC cells, cRGDfk at 1000-fold molar excess; labelled ^111In-DTPA-RGD4C-yCD; settings: remark: other sources report otherwise
[4] = molecular target: T2, integrin αvβ3 receptor on cells (HUVEC, U87MG, MCF-7, ES-2-luc) (human, UniProt P06756 31-1048; P05106 27-788); experiment: cell-based or functional assay
integrin αvβ3 receptor [5] = molecular target: T3, integrin αvβ3 receptor (UniProt P06756 31-992; P05106 27-718); experiment: ELISA on integrin αvβ3 receptor (repeats Table 14)
T3 construct: also called αvβ3 integrin; αvβ3 integrin receptor

[6] = molecular target: T2, integrin αvβ3 receptor on cells (HUVEC, …); experiment: cell ELISA, HUVEC against MCF-7
[7] = molecular target: T2, integrin αvβ3 receptor on cells (HUVEC, …); experiment: cell ELISA on MCF-7 cells (low αvβ3 expression), anti-His-HRP
Description: (§1) After reacted with anti-His-HRP antibody and TMB substrate, ELISA reader (OD450 nm) is used to detect the amount of recombinant protein bound to the cells, and the binding curve is drawn. The nonlinear curve of the prism software is used to make a diagram and calculate the dissociation constant (Kd).
(§2) The anti-His6-Tag-HRP antibody and TMB show the color reagent to detect the amount of recombinant protein bound to the cell, then the dissociation constant Kd value of the recombinant protein and the integrin αᵥβ₃ receptor is calculated and a binding curve is drawn.

[8] = molecular target: T2, integrin αvβ3 receptor on cells (HUVEC, …); experiment: cell-based or functional assay; remark: listed apart in the source
[9] = molecular target: T2, integrin αvβ3 receptor on cells (HUVEC, …); experiment: cell ELISA on HUVEC cells, anti-His-HRP
Description: as §1, §2

[10] = molecular target: T2, integrin αvβ3 receptor on cells (HUVEC, …); experiment: cell ELISA on U87MG cells (repeats Table 2)
integrin αvβ3 receptor [11] = molecular target: T3, integrin αvβ3 receptor; experiment: ELISA on integrin αvβ3 receptor, anti-His6-HRP detection, curve fit
Description: The dissociation constant Kd is obtained by prism software with curve fitting method.

[12] = molecular target: T2, integrin αvβ3 receptor on cells (HUVEC, …); experiment: cell ELISA, U87MG against MCF-7
[13] = molecular target: T2, integrin αvβ3 receptor on cells (HUVEC, …); experiment: cell ELISA on HUVEC cells (repeats Table 2)
[14] = molecular target: T2, integrin αvβ3 receptor on cells (HUVEC, …); experiment: cell ELISA on U87MG cells, anti-His-HRP
Description: as §1, §2

integrin αvβ3 receptor [15] = molecular target: T3, integrin αvβ3 receptor; experiment: ELISA on integrin αvβ3 receptor, one site-specific binding fit
Description: The curve and receptor binding ability parameters (see FIG. 19 and Table 14) are fitted by the binding ability of DTPA-modified protein and integrin αᵥβ₃ receptor through the One site-Specific binding formula in the Graph prism program.

[16] = molecular target: T2, integrin αvβ3 receptor on cells (HUVEC, …); experiment: cell ELISA on MCF-7 cells (repeats Table 2)
[17] = molecular target: T2, integrin αvβ3 receptor on cells (HUVEC, …); experiment: cell-based or functional assay; remark: listed apart in the source
integrin αvβ3 receptor [18] = molecular target: T3, integrin αvβ3 receptor; experiment: ELISA on integrin αvβ3 receptor, after simulated labelling conditions
integrin αvβ3 receptor [19] = molecular target: T3, integrin αvβ3 receptor; experiment: ELISA on integrin αvβ3 receptor, after simulated labelling and challenge with 10-fold molar excess of EDTA
integrin αvβ3 receptor [20] = molecular target: T3, integrin αvβ3 receptor; experiment: ELISA on integrin αvβ3 receptor; paragraph 109 says yCD can not be bound before and after modification

B1: cRGDfk (peptide)
peptide: RGDFK
modifications: not fully specified (residues 4, 5); also: prefix c and lower-case f, k not explained
What does the source list for B1?
percent decrease of uptake [1]: 70%; percent decrease of uptake [2]: 45%; percent decrease of uptake [3]: 65%

B2: RGD4C-yCD (other)
chain: MACDCRGDCFCVTGGMASKWDQKGMDIAYEEAALGYKEGGVPIGGCLINNKDGSVLGRGHNMRFQKGSATLHGEISTLENCGRLEGKVYKDTTLYTTLSPCDMCTGAIIMYGIPRCVVGENVNFKSKGEKYLQTRGHEVVVVDDERCKKIMKQFIDERPQDWFEDIGELEHHHHHH
notes: Fusion of the RGD4C peptide with yeast cytosine deaminase, expressed from pET28a(+) in E. coli and detected by its His6 tag; also called RGD4C-yCD recombinant protein
How did the “IC50 of 5-FC, MTT cytotoxicity, HUVEC cells incubated with 500 nM protein then washed (repeats Table 3)” value [4] turn out when B2 was run?
The value was 23.6 µM.

What about the “IC50 of 5-FC, MTT cytotoxicity, MCF-7 cells (low αvβ3) incubated with 500 nM protein then washed (repeats Table 3)” value [4] of the same binder?
The value was 5130 µM.

And the “IC50 of 5-FC, MTT cytotoxicity, U87MG cells incubated with 500 nM protein then washed (repeats Table 3)” value [4]?
Its value is 37.1 µM.

And the Kd (integrin αvβ3 receptor [5])?
The Kd was 0.0207 µM.

And the “fold cell binding ability against MCF-7” value [6]?
Its value is ~7.7 fold.

What about the Kd [7] of the same binder?
The Kd was 0.366 µM.

What about the “protein reaction concentration IC50 of cytotoxic effect, MTT, HUVEC cells, 100 µM 5-FC” value [8] of the same binder?
Its value is 0.209 µM.

What about the “protein reaction concentration IC50 of cytotoxic effect, MTT, U87MG cells, 100 µM 5-FC” value [8] of the same binder?
The value was 0.177 µM.

What about the Kd [9] of the same binder?
The Kd was 0.0475 µM.

And the Kd [10]?
Its Kd is 0.0537 µM.

What about the Kd (integrin αvβ3 receptor [11]) of the same binder?
The Kd was 0.0395 µM.

What about the “fold cell binding ability against MCF-7” value [12] of the same binder?
The value was ~6.8 fold.

And the Kd [13]?
Its Kd is 0.0475 µM.

And the Kd [14]?
The Kd was 0.0537 µM.

And the Kd (integrin αvβ3 receptor [15])?
Its Kd is 0.0207 µM.

What about the Kd [16] of the same binder?
Its Kd is 0.366 µM.

And the “IC50 of 5-FC, MTT cytotoxicity, HUVEC cells incubated with 500 nM protein then washed” value [17]?
Its value is 23.6 µM.

And the “IC50 of 5-FC, MTT cytotoxicity, MCF-7 cells (low αvβ3) incubated with 500 nM protein then washed” value [17]?
The value was 5130 µM.

What about the “IC50 of 5-FC, MTT cytotoxicity, U87MG cells incubated with 500 nM protein then washed” value [17] of the same binder?
Its value is 37.1 µM.

B3: In-DTPA-RGD4C-yCD (other)
chain: B2 chain
modifications: DTPA on primary amines, loaded with the stable isotope of indium
notes: also called In-DTPA- RGD4C-yCD 10x EDTA
B3 was tested. Which Kd (integrin αvβ3 receptor [18]) did it give?
The Kd was 0.0254 µM.

And the Kd (integrin αvβ3 receptor [19])?
Its Kd is 0.0346 µM.

B4: DTPA-yCD (enzyme)
chain: MVVTGGMASKWDQKGMDIAYEEAALGYKEGGVPIGGCLINNKDGSVLGRGHNMRFQKGSATLHGEISTLENCGRLEGKVYKDTTLYTTLSPCDMCTGAIIMYGIPRCVVGENVNFKSKGEKYLQTRGHEVVVVDDERCKKIMKQFIDERPQDWFEDIGELEHHHHHH
modifications: DTPA on primary amines, 1.16 DTPA per protein on average
Does B4 bind (integrin αvβ3 receptor [20])?
Result: no binding
